According to the MegaScale stability set (Tsuboyama et al. 2023):

B1: 1ZHC (parent)
chain: HEFRDEISVLKANNPHFDKIFEKHNQLDDDIKTAEQQNASDAEVSHMKKQKLKLKDEIHSMIIEYREK

Variants of: B1
Test: folding stability dG (cDNA display proteolysis); higher = more stable
Details: PBS, room temperature

| Variant | folding stability dG |
| --- | --- |
| HEFRDEISVLKANNPHFDKIFEKHNQLDDDIKMAEQQNASDAEVSHMKKQKLKLKDEIHSMIIEYREK [T33M] | 1.26 kcal/mol |
| HEFRDEISVLKANNPHFDKIFEKHNQLDDDIKCAEQQNASDAEVSHMKKQKLKLKDEIHSMIIEYREK [T33C] | 0.988 kcal/mol |
| HEFRDEISVLKANNPHFDKIFEKHNQLDDDIKIAEQQNASDAEVSHMKKQKLKLKDEIHSMIIEYREK [T33I] | 0.854 kcal/mol |
| HEFRDEISVLKANNPHFDKIFEKHNQLDDDIKRAEQQNASDAEVSHMKKQKLKLKDEIHSMIIEYREK [T33R] | 1.55 kcal/mol |
| HEFRDEISVLKANNPHFDKIFEKHNQLDDDIKLAEQQNASDAEVSHMKKQKLKLKDEIHSMIIEYREK [T33L] | 1.14 kcal/mol |
| HEFRDEISVLKANNPHFDKIFEKHNQLDDDIKSAEQQNASDAEVSHMKKQKLKLKDEIHSMIIEYREK [T33S] | 0.866 kcal/mol |
| HEFRDEISVLKANNPHFDKIFEKHNQLDDDIKNAEQQNASDAEVSHMKKQKLKLKDEIHSMIIEYREK [T33N] | 1.07 kcal/mol |
| HEFRDEISVLKANNPHFDKIFEKHNQLDDDIKYAEQQNASDAEVSHMKKQKLKLKDEIHSMIIEYREK [T33Y] | 0.829 kcal/mol |
| HEFRDEISVLKANNPHFDKIFEKHNQLDDDIKDAEQQNASDAEVSHMKKQKLKLKDEIHSMIIEYREK [T33D] | 0.706 kcal/mol |
| HEFRDEISVLKANNPHFDKIFEKHNQLDDDIKKAEQQNASDAEVSHMKKQKLKLKDEIHSMIIEYREK [T33K] | 1.43 kcal/mol |
| HEFRDEISVLKANNPHFDKIFEKHNQLDDDIKEAEQQNASDAEVSHMKKQKLKLKDEIHSMIIEYREK [T33E] | 0.363 kcal/mol |
| HEFRDEISVLKANNPHFDKIFEKHNQLDDDIKAAEQQNASDAEVSHMKKQKLKLKDEIHSMIIEYREK [T33A] | 1.14 kcal/mol |
| HEFRDEISVLKANNPHFDKIFEKHNQLDDDIKQAEQQNASDAEVSHMKKQKLKLKDEIHSMIIEYREK [T33Q] | 1.02 kcal/mol |
| HEFRDEISVLKANNPHFDKIFEKHNQLDDDIKVAEQQNASDAEVSHMKKQKLKLKDEIHSMIIEYREK [T33V] | 1.3 kcal/mol |
| HEFRDEISVLKANNPHFDKIFEKHNQLDDDIKWAEQQNASDAEVSHMKKQKLKLKDEIHSMIIEYREK [T33W] | 0.943 kcal/mol |
| HEFRDEISVLKANNPHFDKIFEKHNQLDDDIKGAEQQNASDAEVSHMKKQKLKLKDEIHSMIIEYREK [T33G] | -0.016 kcal/mol |
| HEFRDEISVLKANNPHFDKIFEKHNQLDDDIKHAEQQNASDAEVSHMKKQKLKLKDEIHSMIIEYREK [T33H] | 0.96 kcal/mol |
| HEFRDEISVLKANNPHFDKIFEKHNQLDDDIKFAEQQNASDAEVSHMKKQKLKLKDEIHSMIIEYREK [T33F] | 1 kcal/mol |
| HEFRDEISVLKANNPHFDKIFEKHNQLDDDIKTLEQQNASDAEVSHMKKQKLKLKDEIHSMIIEYREK [A34L] | 1.21 kcal/mol |
| HEFRDEISVLKANNPHFDKIFEKHNQLDDDIKTQEQQNASDAEVSHMKKQKLKLKDEIHSMIIEYREK [A34Q] | -0.306 kcal/mol |

| Variant | folding stability dG |
| --- | --- |
| HEFRDEISVLKANNPHFDKIFEKHNQLDDDIKTFEQQNASDAEVSHMKKQKLKLKDEIHSMIIEYREK [A34F] | 0.526 kcal/mol |
| HEFRDEISVLKANNPHFDKIFEKHNQLDDDIKTVEQQNASDAEVSHMKKQKLKLKDEIHSMIIEYREK [A34V] | -0.863 kcal/mol |
| HEFRDEISVLKANNPHFDKIFEKHNQLDDDIKTCEQQNASDAEVSHMKKQKLKLKDEIHSMIIEYREK [A34C] | 0.429 kcal/mol |
| HEFRDEISVLKANNPHFDKIFEKHNQLDDDIKTREQQNASDAEVSHMKKQKLKLKDEIHSMIIEYREK [A34R] | 0.663 kcal/mol |
| HEFRDEISVLKANNPHFDKIFEKHNQLDDDIKTIEQQNASDAEVSHMKKQKLKLKDEIHSMIIEYREK [A34I] | -0.296 kcal/mol |
| HEFRDEISVLKANNPHFDKIFEKHNQLDDDIKTKEQQNASDAEVSHMKKQKLKLKDEIHSMIIEYREK [A34K] | 0.579 kcal/mol |
| HEFRDEISVLKANNPHFDKIFEKHNQLDDDIKTYEQQNASDAEVSHMKKQKLKLKDEIHSMIIEYREK [A34Y] | 0.389 kcal/mol |
| HEFRDEISVLKANNPHFDKIFEKHNQLDDDIKTWEQQNASDAEVSHMKKQKLKLKDEIHSMIIEYREK [A34W] | 0.215 kcal/mol |
| HEFRDEISVLKANNPHFDKIFEKHNQLDDDIKTMEQQNASDAEVSHMKKQKLKLKDEIHSMIIEYREK [A34M] | 0.859 kcal/mol |
| HEFRDEISVLKANNPHFDKIFEKHNQLDDDIKTHEQQNASDAEVSHMKKQKLKLKDEIHSMIIEYREK [A34H] | -0.482 kcal/mol |
| HEFRDEISVLKANNPHFDKIFEKHNQLDDDIKTASQQNASDAEVSHMKKQKLKLKDEIHSMIIEYREK [E35S] | 0.162 kcal/mol |
| HEFRDEISVLKANNPHFDKIFEKHNQLDDDIKTAWQQNASDAEVSHMKKQKLKLKDEIHSMIIEYREK [E35W] | 0.403 kcal/mol |
| HEFRDEISVLKANNPHFDKIFEKHNQLDDDIKTAAQQNASDAEVSHMKKQKLKLKDEIHSMIIEYREK [E35A] | 0.281 kcal/mol |
| HEFRDEISVLKANNPHFDKIFEKHNQLDDDIKTANQQNASDAEVSHMKKQKLKLKDEIHSMIIEYREK [E35N] | 0.058 kcal/mol |
| HEFRDEISVLKANNPHFDKIFEKHNQLDDDIKTARQQNASDAEVSHMKKQKLKLKDEIHSMIIEYREK [E35R] | 0.348 kcal/mol |
| HEFRDEISVLKANNPHFDKIFEKHNQLDDDIKTAMQQNASDAEVSHMKKQKLKLKDEIHSMIIEYREK [E35M] | 1.49 kcal/mol |
| HEFRDEISVLKANNPHFDKIFEKHNQLDDDIKTAYQQNASDAEVSHMKKQKLKLKDEIHSMIIEYREK [E35Y] | 0.895 kcal/mol |
| HEFRDEISVLKANNPHFDKIFEKHNQLDDDIKTAKQQNASDAEVSHMKKQKLKLKDEIHSMIIEYREK [E35K] | 0.972 kcal/mol |
| HEFRDEISVLKANNPHFDKIFEKHNQLDDDIKTATQQNASDAEVSHMKKQKLKLKDEIHSMIIEYREK [E35T] | 0.201 kcal/mol |
